Measured values: patent publication US9327008B2, “Cell-permeant peptide-based inhibitor of kinases” (Purdue Research Foundation, priority 2008, dated 2016)

Experiments:
Assay type in all cases: biochemical
CaMKI = target: T1, CaMKI (Homo sapiens, UniProt Q14012); experiment: Millipore radiometric kinase activity assay, CaMKI (h); details: for CaMK1 Kinase Activity: peptide inhibitor 300 μM, SD of 2 samples
T1 construct: purchased Millipore (assay service)
Method: (§1) A commercial radiometric assay service (Millipore, Billerica, Mass.) was used to test the specificity and potency of peptides containing a coupled transduction domain and therapeutic domain, hereinafter “complete peptides”). In these assays, if the kinase is not inhibited by an inhibitor peptide, a positively charged substrate is phosphorylated with a radiolabeled phosphate group from an ATP.
(§2) In a final reaction volume of 25 μL, CaMKI (h) (5-10 mU) is incubated with 8 mM MOPS pH 7.0, 0.2 mM EDTA, 0.5 mM CaCl2, 16 μg/mL calmodulin, 250 μM […] [SEQ ID NO: 52], 10 mM MgAcetate and [γ-^33P-ATP] (specific activity approx. 500 cpm/pmol, concentration as required). The reaction is initiated by the addition of the MgATP mix. After incubation for 40 minutes at room temperature, the reaction is stopped by the addition of 5 μL of a 3% phosphoric acid solution. 10 μL of the reaction is then spotted onto a P30 filtermat and washed three times for 5 minutes in 75 mM phosphoric acid and once in methanol prior to drying and scintillation counting.
(§3) IC50 values for inhibitor peptides were determined using Millipore's IC50Profiler Express service. The IC50 value was estimated from a 10-point curve of one-half log dilutions. For peptides tested for specificity, the concentration of the peptides that inhibited approximately 95% of MK2 activity was chosen to profile against a battery of kinases related to MK2, cell viability, or human disease from MilliporeKinaseProfiler service. In both assays, compounds were supplied in dimethylsulfoxide (DMSO). Every kinase activity measurement was conducted in duplicate.
(§4) Therapeutic inhibitor peptides were assayed for activity against human kinases related to MK2, cell viability, or human disease. The assays were performed using concentrations of therapeutic inhibitor peptides that yielded 2% to 8% of normal MK2 activity. Error is reported as the standard deviation between 2 samples, and “c” is rat AMPK whereas all other kinases used are human kinases.
(§5) Additional therapeutic inhibitor peptide variants were assayed for activity against several human kinases representative of several families of kinases. These kinases included: MK2; MK3; CaMKI (calcium/calmodulin-dependent protein kinase); PRAK (p38 regulated/activated protein kinase, also known as mitogen-activated protein kinase activated protein kinase 5 (MAPKAPK5)); SAPK2a (p38α); IRAK4 (IL-1 receptor (IL-1R)-associated kinase); MLCK (myosin light chain kinase); PKBβ (protein kinase B); PCKδ (protein kinase C); and ROCK-I (Rho-associated serine/threonine kinase).

IRAK4 = target: T2, IRAK4 (Homo sapiens, UniProt Q9NWZ3); experiment: Millipore radiometric kinase activity assay, IRAK4 (h)
T2 construct: purchased Millipore (assay service)
T2 sequence (Q9NWZ3 1-460): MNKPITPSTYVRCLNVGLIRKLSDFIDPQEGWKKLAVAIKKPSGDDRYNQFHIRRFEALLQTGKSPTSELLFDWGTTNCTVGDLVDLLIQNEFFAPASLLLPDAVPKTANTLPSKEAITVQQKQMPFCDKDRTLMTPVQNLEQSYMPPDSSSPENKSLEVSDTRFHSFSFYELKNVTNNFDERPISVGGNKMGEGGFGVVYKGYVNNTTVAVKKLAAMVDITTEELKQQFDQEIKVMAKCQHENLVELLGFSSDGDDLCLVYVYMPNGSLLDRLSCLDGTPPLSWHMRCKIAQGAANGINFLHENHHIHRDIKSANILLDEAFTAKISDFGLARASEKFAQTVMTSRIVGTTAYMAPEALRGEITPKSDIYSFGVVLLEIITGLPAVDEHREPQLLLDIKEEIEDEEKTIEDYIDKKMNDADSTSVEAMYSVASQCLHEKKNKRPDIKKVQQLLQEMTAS
Method: as §1
In a final reaction volume of 25 μL, IRAK4 (h) (5-10 mU) is incubated with 8 mM MOPS pH 7.0, 0.2 mM EDTA, 0.33 mg/mL myelin basic protein, 10 mM MgAcetate and [γ-^33P-ATP] (specific activity approx. 500 cpm/pmol, concentration as required). The reaction is initiated by the addition of the MgATP mix. After incubation for 40 minutes at room temperature, the reaction is stopped by the addition of 5 μL of a 3% phosphoric acid solution. 10 μl of the reaction is then spotted onto a P30 filtermat and washed three times for 5 minutes in 75 mM phosphoric acid and once in methanol prior to drying and scintillation counting.
as §3, §4, §5

PKBβ = target: T3, PKBβ (Homo sapiens, UniProt P31751); experiment: Millipore radiometric kinase activity assay, PKBβ (h); details: for PKBβ Kinase Activity: peptide inhibitor 300 μM, SD of 2 samples
T3 construct: purchased Millipore (radiometric assay service)
T3 sequence (P31751 whole entry): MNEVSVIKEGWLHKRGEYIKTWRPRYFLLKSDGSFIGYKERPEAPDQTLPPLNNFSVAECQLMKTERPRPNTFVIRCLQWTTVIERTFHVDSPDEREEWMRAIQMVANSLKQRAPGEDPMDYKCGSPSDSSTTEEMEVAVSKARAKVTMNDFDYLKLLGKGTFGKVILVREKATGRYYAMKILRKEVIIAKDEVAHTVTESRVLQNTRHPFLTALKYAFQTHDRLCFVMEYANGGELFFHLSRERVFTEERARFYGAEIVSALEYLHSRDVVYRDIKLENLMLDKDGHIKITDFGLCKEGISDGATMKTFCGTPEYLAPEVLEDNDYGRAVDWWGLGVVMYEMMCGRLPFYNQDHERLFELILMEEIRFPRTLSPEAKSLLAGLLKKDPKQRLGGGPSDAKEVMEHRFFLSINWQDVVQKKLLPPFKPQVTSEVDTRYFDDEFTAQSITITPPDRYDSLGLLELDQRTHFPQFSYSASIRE
Method: as §1
(§6) In a final reaction volume of 25 μL, PKAβ (h) (5-10 mU) is incubated with 8 mM MOPS pH 7.0, 0.2 mM EDTA, 30 μM […] [SEQ ID NO: 60], 10 mM MgAcetate and ['y-^33P-ATP] (specific activity approx. 500 cpm/pmol, concentration as required). The reaction is initiated by the addition of the MgATP mix. After incubation for 40 minutes at room temperature, the reaction is stopped by the addition of 5 μL it of a 3% phosphoric acid solution. 10 μL of the reaction is then spotted onto a P30 filtermat and washed three times for 5 minutes in 75 mM phosphoric acid and once in methanol prior to drying and scintillation counting.
as §3, §4, §5

ROCK-I = target: T4, ROCK-I (Homo sapiens, UniProt Q13464); experiment: Millipore radiometric kinase activity assay, ROCK-I (h); details: for ROCK-1 Kinase Activity: peptide inhibitor 300 μM, SD of 2 samples
T4 construct: purchased Millipore (radiometric assay service)
T4 sequence (Q13464 whole entry): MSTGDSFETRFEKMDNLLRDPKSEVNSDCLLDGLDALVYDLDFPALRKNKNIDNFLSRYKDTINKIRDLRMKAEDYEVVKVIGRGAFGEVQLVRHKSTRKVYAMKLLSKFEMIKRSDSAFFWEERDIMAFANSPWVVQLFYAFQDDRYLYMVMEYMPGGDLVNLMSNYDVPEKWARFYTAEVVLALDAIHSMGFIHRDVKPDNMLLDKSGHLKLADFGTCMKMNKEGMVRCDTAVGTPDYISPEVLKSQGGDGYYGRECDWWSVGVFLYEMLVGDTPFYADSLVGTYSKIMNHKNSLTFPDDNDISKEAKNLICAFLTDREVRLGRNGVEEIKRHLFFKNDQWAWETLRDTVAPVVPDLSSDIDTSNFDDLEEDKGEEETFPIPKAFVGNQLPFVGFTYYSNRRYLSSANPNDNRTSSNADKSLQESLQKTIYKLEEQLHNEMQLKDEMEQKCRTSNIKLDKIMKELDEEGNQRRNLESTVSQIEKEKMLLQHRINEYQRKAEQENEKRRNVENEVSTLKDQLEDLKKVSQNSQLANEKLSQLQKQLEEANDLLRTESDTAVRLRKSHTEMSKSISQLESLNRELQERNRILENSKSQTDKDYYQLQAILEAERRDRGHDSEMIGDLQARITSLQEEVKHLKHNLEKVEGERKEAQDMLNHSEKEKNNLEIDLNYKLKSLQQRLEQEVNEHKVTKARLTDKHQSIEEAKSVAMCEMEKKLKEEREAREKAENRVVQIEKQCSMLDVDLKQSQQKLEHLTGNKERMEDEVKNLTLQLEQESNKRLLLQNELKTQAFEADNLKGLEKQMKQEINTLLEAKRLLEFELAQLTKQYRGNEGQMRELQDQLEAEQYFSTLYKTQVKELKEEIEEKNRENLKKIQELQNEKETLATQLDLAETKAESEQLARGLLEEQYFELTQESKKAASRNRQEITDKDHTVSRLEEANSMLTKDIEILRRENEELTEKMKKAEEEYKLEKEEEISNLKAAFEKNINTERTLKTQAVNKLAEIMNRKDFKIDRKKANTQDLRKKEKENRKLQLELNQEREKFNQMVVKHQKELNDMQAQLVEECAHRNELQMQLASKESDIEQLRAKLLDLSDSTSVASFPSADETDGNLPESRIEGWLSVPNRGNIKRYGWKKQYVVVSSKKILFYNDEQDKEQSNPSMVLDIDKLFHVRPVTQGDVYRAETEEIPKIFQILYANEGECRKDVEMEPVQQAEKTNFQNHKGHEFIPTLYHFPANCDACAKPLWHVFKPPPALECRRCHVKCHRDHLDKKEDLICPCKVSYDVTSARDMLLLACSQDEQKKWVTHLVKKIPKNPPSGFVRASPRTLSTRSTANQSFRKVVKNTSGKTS
Method: as §1
as §6, with “ROCK-I (b)” for “PKAβ (h)”, “63],” for “60],”, “[γ-^33P-ATP]” for “['y-^33P-ATP]”, “μL” for “μL it”
as §3, §4, §5

Met = target: T5, Met (Homo sapiens, UniProt P08581); experiment: Millipore radiometric kinase activity assay, Met (h)
T5 construct: purchased Millipore (radiometric assay service)
T5 sequence (P08581 25-1390): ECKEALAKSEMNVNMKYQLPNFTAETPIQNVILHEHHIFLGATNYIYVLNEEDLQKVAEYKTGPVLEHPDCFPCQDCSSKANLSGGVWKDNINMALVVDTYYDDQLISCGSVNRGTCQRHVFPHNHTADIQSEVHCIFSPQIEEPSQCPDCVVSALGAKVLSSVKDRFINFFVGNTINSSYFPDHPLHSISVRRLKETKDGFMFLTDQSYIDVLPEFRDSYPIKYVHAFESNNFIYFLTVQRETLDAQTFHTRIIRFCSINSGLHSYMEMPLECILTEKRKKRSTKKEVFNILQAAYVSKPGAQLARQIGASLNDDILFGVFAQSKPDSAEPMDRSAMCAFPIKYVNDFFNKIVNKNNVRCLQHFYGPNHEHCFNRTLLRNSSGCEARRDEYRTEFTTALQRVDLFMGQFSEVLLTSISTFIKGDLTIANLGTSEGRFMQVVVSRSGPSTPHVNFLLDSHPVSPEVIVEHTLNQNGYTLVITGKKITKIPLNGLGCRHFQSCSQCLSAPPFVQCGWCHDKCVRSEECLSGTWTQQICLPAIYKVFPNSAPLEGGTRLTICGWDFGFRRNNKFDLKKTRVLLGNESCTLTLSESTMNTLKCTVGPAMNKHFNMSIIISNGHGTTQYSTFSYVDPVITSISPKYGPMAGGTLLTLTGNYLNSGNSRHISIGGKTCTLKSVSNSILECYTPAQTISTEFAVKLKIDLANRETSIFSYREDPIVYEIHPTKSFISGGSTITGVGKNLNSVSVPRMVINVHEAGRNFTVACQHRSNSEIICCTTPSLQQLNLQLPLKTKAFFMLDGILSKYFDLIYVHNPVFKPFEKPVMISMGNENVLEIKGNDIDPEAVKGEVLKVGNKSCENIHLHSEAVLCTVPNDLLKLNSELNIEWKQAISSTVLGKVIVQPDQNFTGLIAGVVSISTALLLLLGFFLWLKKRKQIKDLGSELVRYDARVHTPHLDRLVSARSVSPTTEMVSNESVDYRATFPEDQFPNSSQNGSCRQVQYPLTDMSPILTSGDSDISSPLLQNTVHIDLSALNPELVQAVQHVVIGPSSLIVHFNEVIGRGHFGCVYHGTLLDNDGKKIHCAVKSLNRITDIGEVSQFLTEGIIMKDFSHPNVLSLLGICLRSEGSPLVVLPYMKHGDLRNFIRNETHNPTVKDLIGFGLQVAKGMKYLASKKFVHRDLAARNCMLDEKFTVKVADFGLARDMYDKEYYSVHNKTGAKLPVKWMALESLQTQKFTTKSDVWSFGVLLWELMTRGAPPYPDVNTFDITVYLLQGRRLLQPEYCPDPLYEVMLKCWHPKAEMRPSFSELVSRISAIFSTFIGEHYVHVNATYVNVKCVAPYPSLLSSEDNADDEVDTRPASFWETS
Method: as §1
as §2, with “Met” for “CaMKI”, “EDTA,” for “EDTA, 0.5 mM CaCl2, 16 μg/mL calmodulin,”, “56],” for “52],”
as §3, §4

[1] = peptide 100 μM, listed as KAFAKLAARLYRLARQLGVAA
[2] = peptide 30 μM, listed as WLRRIKAWLRRI-

Sequence | CaMKI Kinase Activity (%) (+SD %) (CaMKI; peptide 100 μM) | IRAK4 Kinase Activity (%) (+SD %) (IRAK4; peptide 100 μM) | PKBβ Kinase Activity (%) (+SD %) (PKBβ; peptide 100 μM) | ROCK-1 Kinase Activity (%) (+SD %) (ROCK-I; peptide 100 μM) | CaMK1 Kinase Activity (CaMKI) | PKBβ Kinase Activity (PKBβ) | ROCK-1 Kinase Activity (ROCK-I) | Met Kinase Activity (%) (+SD %) (Met; peptide 100 μM) | also measured
FAKLAARLYRKALARQLGVAA | 0(2) % | 13(4) % | 16(5) % | 25(2) % | – | – | – | – | –
YARAAARQARAKALNRQLGVAA | – | – | – | – | 8(1) % | 96(1) % | 95(7) % | – | IRAK4 Kinase Activity (IRAK4; peptide inhibitor 300 μM, SD of 2 samples): 68(3) %
KAFAKLAARLYRKALARQLGVAA | 0 (2) % | 16 (2) % | 28 (4) % | 29 (0) % | – | – | – | 22 (3) % | CaMKI Kinase Activity (%) (+SD %) (CaMKI; [1]): 0(2) %; IRAK4 Kinase Activity (%) (+SD %) (IRAK4; [1]): 16(2) %; PKBβ Kinase Activity (%) (+SD %) (PKBβ; [1]): 28(4) %; ROCK-1 Kinase Activity (%) (+SD %) (ROCK-I; [1]): 29(0) %
YARAAARQARAKALARQLGVAA | – | – | – | – | 2(0) % | 17(2) % | 27(4) % | – | –
WLRRIKAWLRRIKALNRQLGVAA | 0 (2) % | 13 (4) % | 16 (5) % | 25 (2) % | – | – | – | 17 (3) % | CaMKI Kinase Activity (%) (+SD %) (CaMKI; peptide 30 μM): 9(1) %; CaMKI Kinase Activity (%) (+SD %) (CaMKI; [2]): 9 (1) %; IRAK4 Kinase Activity (%) (+SD %) (IRAK4; peptide 30 μM): 12(1) %; IRAK4 Kinase Activity (%) (+SD %) (IRAK4; [2]): 12 (1) %; Met Kinase Activity (%) (+SD %) (Met; peptide 30 μM): 30 (1) %; PKBβ Kinase Activity (%) (+SD %) (PKBβ; peptide 30 μM): 18(2) %; PKBβ Kinase Activity (%) (+SD %) (PKBβ; [2]): 18 (2) %; ROCK-1 Kinase Activity (%) (+SD %) (ROCK-I; peptide 30 μM): 0(1) %; ROCK-1 Kinase Activity (%) (+SD %) (ROCK-I; [2]): 0 (1) %
